From paper PMC314469, “Protein Interaction Networks by Proteome Peptide Scanning” (PLoS Biology, 2004) come the findings set out here.

Common to all, as to assay: SPOT array
The target of experiment [1] is T1, Boi2 SH3 (BOI2_YEAST), P39969.
T1 chain: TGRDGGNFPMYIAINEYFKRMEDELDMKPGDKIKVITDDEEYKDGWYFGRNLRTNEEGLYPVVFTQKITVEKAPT

In experiment [2] the target is T2, Rvs167 SH3 (RV167_YEAST), P39743.
T2 chain: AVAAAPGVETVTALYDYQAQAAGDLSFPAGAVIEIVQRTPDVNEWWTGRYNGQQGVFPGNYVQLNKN

The target of experiment [3] is T3, Myo5 SH3 (MYO5_YEAST), Q04439.
T3 chain: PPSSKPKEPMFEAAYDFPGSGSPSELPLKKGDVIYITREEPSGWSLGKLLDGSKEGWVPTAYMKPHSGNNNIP

Experiment [4] deals with T4, Boi1 SH3 (BOI1_YEAST), P38041.
T4 chain: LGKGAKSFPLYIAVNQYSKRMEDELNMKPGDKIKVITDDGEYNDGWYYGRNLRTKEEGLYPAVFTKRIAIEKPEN

For experiment [5], the target named is Sho1 SH3 (SHO1_YEAST), P40073.
The target of experiment [6] is T5, Yfr024 SH3 (LSB3_YEAST), P43603.
T5 chain: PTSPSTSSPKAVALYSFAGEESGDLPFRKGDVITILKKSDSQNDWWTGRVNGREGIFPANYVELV

For experiment [7], the target named is T6, Yhr016c SH3 (YSC84_YEAST), P32793.
T6 chain: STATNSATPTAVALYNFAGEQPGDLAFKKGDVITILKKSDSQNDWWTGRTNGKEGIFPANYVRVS

Chain of Sho1 SH3 (SHO1_YEAST), P40073 (P40073 295-366): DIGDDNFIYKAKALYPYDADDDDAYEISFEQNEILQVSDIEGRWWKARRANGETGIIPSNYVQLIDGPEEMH

In the case of HISDKMNPASPQYF [YDR266C 250-263], the normalised SPOT signal, Boehringer light units (BLU); mean over the file's lines of this peptide stood at 18.2 in experiment [1]; 30.3 in experiment [2]; 159 in experiment [3]; 113 in experiment [4]; 115 in experiment [5]; 161 in experiment [6]. In experiment [7], this molecule yielded a normalised SPOT signal, Boehringer light units (BLU); mean over the file's lines of this peptide of 27.4.

Take HEREKALPPIPFTT [YLR425W 196-209]: the normalised SPOT signal, Boehringer light units (BLU); mean over the file's lines of this peptide in experiment [1] turned out to be 1.7; in experiment [2] it was 42.8; in experiment [3], 215; in experiment [4], 54.9; in experiment [5] it was 57900; in experiment [6], 158. The normalised SPOT signal, Boehringer light units (BLU); mean over the file's lines of this peptide in experiment [7] came out at 15.2.

As for HELVKSDPHFPYGT [YDL117W 838-851], the normalised SPOT signal, Boehringer light units (BLU); mean over the file's lines of this peptide in experiment [1] worked out at 32.3; in experiment [2], 29.9; in experiment [3], 229; in experiment [4] it was 37.2; in experiment [5] it was 11.7; in experiment [6], 2.5. The same molecule displayed a normalised SPOT signal, Boehringer light units (BLU); mean over the file's lines of this peptide in experiment [7] of 17.

With HRLFKSTPGLPKLW [YAL048C 356-369], the normalised SPOT signal, Boehringer light units (BLU); mean over the file's lines of this peptide amounted to 123 in experiment [1]; 605 in experiment [2]; 266 in experiment [3]; 226 in experiment [4]; 642 in experiment [5]; 2840 in experiment [6]. This molecule also displayed a normalised SPOT signal, Boehringer light units (BLU); mean over the file's lines of this peptide in experiment [7] of 96.9.

Take HFPSRSQPSDPKLQ [YKR028W 906-919]: the normalised SPOT signal, Boehringer light units (BLU); mean over the file's lines of this peptide in experiment [1] is 17.7; in experiment [2] it was 68.1; in experiment [3], 258; in experiment [4], 91.5; in experiment [5] it was 321; in experiment [6], 294. For the same molecule, the normalised SPOT signal, Boehringer light units (BLU); mean over the file's lines of this peptide in experiment [7] was determined as 32.6.

In the case of HSTPKPLPPVPALS [YNL106C 1030-1043], the normalised SPOT signal, Boehringer light units (BLU); mean over the file's lines of this peptide turned out to be 28.4 in experiment [1]; 94.4 in experiment [2]; 144 in experiment [3]; 1.1 in experiment [4]; 21600 in experiment [5]; 470 in experiment [6]. In experiment [7], this molecule registered a normalised SPOT signal, Boehringer light units (BLU); mean over the file's lines of this peptide of 29.9.

HFNTKKIPELPSQF [YML051W 376-389]: the normalised SPOT signal, Boehringer light units (BLU); mean over the file's lines of this peptide in experiment [1] amounted to 35.7; in experiment [2], 235; in experiment [3] it was 467; in experiment [4] it was 118; in experiment [5], 1960; in experiment [6] it was 204. The normalised SPOT signal, Boehringer light units (BLU); mean over the file's lines of this peptide in experiment [7] was 4.9.

For the molecule HLLGKEGPSAPNPS [YNL287W 476-489], the normalised SPOT signal, Boehringer light units (BLU); mean over the file's lines of this peptide turned out to be 22.1 in experiment [1]; 49.5 in experiment [2]; 124 in experiment [3]; 89 in experiment [4]; 69.5 in experiment [5]; 14.5 in experiment [6]. The normalised SPOT signal, Boehringer light units (BLU); mean over the file's lines of this peptide in experiment [7] worked out at 39.7.

Take HLVRKVAPTKPMYS [YHR070W 477-490]: the normalised SPOT signal, Boehringer light units (BLU); mean over the file's lines of this peptide in experiment [1] turned out to be 69.3; in experiment [2], 252; in experiment [3], 478; in experiment [4], 283; in experiment [5], 121; in experiment [6], 947. For the same molecule, the normalised SPOT signal, Boehringer light units (BLU); mean over the file's lines of this peptide in experiment [7] came to 70.2.

As to HEVPKRSPEKPSNP [YNL278W 806-819], the normalised SPOT signal, Boehringer light units (BLU); mean over the file's lines of this peptide in experiment [1] was determined as 2.4; in experiment [2], 46.4; in experiment [3], 172; in experiment [4], 91.8; in experiment [5] it was 64.4; in experiment [6] it was 148. The same molecule came in with a normalised SPOT signal, Boehringer light units (BLU); mean over the file's lines of this peptide in experiment [7] of 61.8.

On to HKFVKSSPVVPFDD [YOR335C 27-40], for which the normalised SPOT signal, Boehringer light units (BLU); mean over the file's lines of this peptide in experiment [1] came to 7.2; in experiment [2] it was 153; in experiment [3] it was 151; in experiment [4], 247; in experiment [5] it was 53.1; in experiment [6] it was 122. The same molecule returned a normalised SPOT signal, Boehringer light units (BLU); mean over the file's lines of this peptide in experiment [7] of 40.3.

For the molecule HNAAKPIPHVPQAS [YKR067W 8-21], the normalised SPOT signal, Boehringer light units (BLU); mean over the file's lines of this peptide in experiment [1] was 1.8; in experiment [2] it was 20.6; in experiment [3] it was 62.3; in experiment [4], 114; in experiment [5] it was 82.1; in experiment [6], 8.5. In addition, the normalised SPOT signal, Boehringer light units (BLU); mean over the file's lines of this peptide in experiment [7] was 59.3.

Regarding HILEKYSPFDPSGR [YPL148C 31-44], the normalised SPOT signal, Boehringer light units (BLU); mean over the file's lines of this peptide in experiment [1] was 19.3; in experiment [2], 15.9; in experiment [3], 166; in experiment [4], 26.1; in experiment [5] it was 89.5; in experiment [6] it was 82.7. This molecule came in with a normalised SPOT signal, Boehringer light units (BLU); mean over the file's lines of this peptide in experiment [7] of 34.1.

As for HTIPKSGPIVPYVL [YGR010W 26-39], the normalised SPOT signal, Boehringer light units (BLU); mean over the file's lines of this peptide was determined as 33.2 in experiment [1]; 28.2 in experiment [2]; 164 in experiment [3]; 58.4 in experiment [4]; 42.1 in experiment [5]; 47.8 in experiment [6]. Also, in experiment [7], the normalised SPOT signal, Boehringer light units (BLU); mean over the file's lines of this peptide amounted to 18.7.
